Source: patent US8969034B2, “Endoglycosidases that cleave O-linked glycans” (New England Biolabs, Inc., priority 2008, dated 2015)

B1: EngPA: recombinant endo-α-GalNAcase of Propionibacterium acnes (protein)
chain: MSRTPRGRSIGALAVSAGTMLALIAPTAPAHAETRYRQINQAAITAVAADSATATDPISNTLDGNPDTIWHTTWQNGKDPLPHWIVFKLGDEAVNLGKVEITPRSSSNGSGRMHDYELYTANTKTCNNAAFSSAKPVATGSYGASDTSIRKITFAATKATCVKVKVNSSWGGDGSDEEVSSMAEFNAFTVDGSDPSPDPTPSEPPTPEVPKDAISLSDGTVTVRARRDFPQVIDYTVGHAHMAGRIGSPLTKVRINGADHVATVSAPTTTGSSASWKLTFRDLPGVELTADIKVSDGVMTWSIPHIVDTPDHRVNTVSVPGLTLASVTSTDPKAQLSSANIVVDRNKTGDLFQPLATADVSQDTSWVAMANDSTLAAGFEDNATQDGLVGSAATVARFVHSISQVGGTKVGAIEPATWVHRGKGSATPFPTDSLGNKAVCQLPGGATVKDGIGPDPDTPYVRVKIVADANADGKVDWQDAAVATRDVTMKPTGSGDVANKVITHIPFNIVSQATHPFLRTLDDVKRISLATDGLGQQALLKGYQAEGHDSAHPDYGGNVSHRAGGMKDLEKLTESGRQWNTDFGIHVNLVESYPEANHFGDNILVKPYQKAWDWMEQSYRMDYAKDLGSGQLFARLNQLRKELGAKSNLDWLYFDTNYPAGWQNDRIANALNAEGWRIGSEWSSTYPRYNQWSHWANDENYGTGNKGYSSRIIRFIDNSRRDTWNPDPILGNSNVVEYEGWTSHNDYNAFIANVWQRNLPTKFLQRSDIMSWQDGRIAFANGAVATSSKKSISGHEIPTARTITFDGATVFKEGGSYLLPWSNGGSDRLYYWNPGNGSATWKLTNSWAAQKSVSLFMLTDTGRVKVAEIPVTNRSIRIPATKAKTAYVLYPTSKVPAAKTPNWGEGSHFANPGFYSGDTAGWNARGNVSVKHNDRGNFHLEFGKAQSQISQVLNLPAGDHSLWAWVQIDPTKTRPVGLAVDGTGVTPIDHQKGCGGHAESVITSTTAINATASDEYFGTYHQRLRVAFHSDGRPVTVTLKALAGNAIVSADDFRVVDAAVPSDPHVTPATVLFQNFEDVDTGYWPFVTGSAGMEGDARTQLSRRHEPYTQKGWNGRAMDSVLSGDWSLKMHEERNGIVLRTTTASAPLTGGGTRYRISFDYQADKPGYSFVTGHDKVSGKSVKEVITESHAMGVATSTTHFSTDIVVKDQPAWIGFTHQGEGDMSIDNLRIEKLDPRPISVTSTQAAVFPDACKPTPEPIQPAQPSASAPTTSGSPQAPGTGNRPNRYALPRTGADGAGLGFSSSEAASATAAVGVSRQGR
modifications: Propionibacterium acnes
B2: EngEF: recombinant endo-α-GalNAcase (O-glycosidase) of Enterococcus faecalis (protein, listed as Enterococcus faecalis)
chain: MKHGKIKRFSTLTLLASATILVPLSTSAEETTNSSTETSSSMVEPTATEEKLWQSDFPGGKTGEWQDVIGKTNRELAGESLAISRDAAAGNNAVSLNLDSPKLADGEVETKFKYTAGSGRTGVIIRGNTKDSWVFVGYNANGKWLVESPNSWNDSISGPTLNEDTNYLLKVRYVGEKITIWLNTTLIYEGEPVLANGDKIPTEAGHVGVRLWYDKKIVNYDYFKNGPVDSIPEIVPEVTQIAPVKVFTKIGVAPKLPKQVKVTYNTGKEANEAVRWNEIDPDAYKEPGTFEVDGTLENTNIKAKASIVVAKDNEAEKGDKISSADLTAVVDPQFPRIIRYEDPQSNQVIFNGQHEKIDQVMIDGKAYKATAEKQKSEANQAVYNVAVPEIGLRFTTTLTVSEGQELAMKLSDIREEGTKIHTISIPNQGLISVNSTDEGATFAGVVMNTGTNANNGNKNGDTIQDLTTTSQEETKKYMYGFLNTANYAASFWTNAYGDGSVDGSDNNRIHKQTKEAATGFVTTLSSGAWTYRPFDAPEDYTTGETPEVKVKFSKDSNDDNRVDWQDAAIGFRSIMNNPMGAEKVPELVNQRIPFNFASQATNPFLVTLDESKRIYNLTDGLGQMNLLKGYQNEGHDSAHPDYGAIGQRPGGEQALNQLIDEGHKLNAVFGVHINDTESYPEAKGFNEELVDPTKRGWDWLDPSYFIKQRPDTLSGRRYERFKELKQKAPNLDYIYVDVWGNQGESGWASRQLSKEINSLGWFTTNEFPNALEYDSVWNHWSAEKDYGGTTTKGFNSTIVRFIRNHQKDTWIISDNPLLGGAEFEAYEGWVGKTNFNTYRQKTFAINVPTKFLQHYQITNWETTTAADGQIYGTIKLANGAEKVTVTQADANSPRSITLNETEVLKGDAYLLPWNVNGQDKLYHWNPKGGTSTWSLDKKMQGKTNLHLYELTDQGRIDKGAIATTNNQVTIQAEANTPYVIAEPDSIEPMTFGTGTPFKDPGFNEANTLKNNWKVFRGDGEVKKDANGDYVFSSEKERTEIKQDINLPKPGKYSLYLNTETHDRKATVTVKIGGKKYTRTVNNSVAQNYIQADINHTSRKNPQYMQNMRIDFEIPDNAKKGSVTLAVDKGNSVTKFDDLRIVERQTDIMNPDKQTVIKQDFEDTQAVGLYPFVKGSAGGVEDPRIHLSERNEPYTQYGWNGNLVSDVLEGNWSLKAHKQGAGLMLQTIPQNIKFEPNKKYTVQFDYQTDGENVFTAGTINGELKNNNDFKPVGELTSTAADGQTKHYEAEIIGDASGNTTFGIFTTGADKDFIMDNFTVTVESKK

Experiments:
[1] = molecular target: Propionibacterium acnes endo-α-GalNAcase EngPA (YP_056270.1), SEQ ID NO:3 (Cutibacterium acnes, UniProt A0ABM7H013); test: Steady-state enzyme kinetics of EngPA; details: EngPA compared with EngEF
[2] = system: Bifidobacterium longum endo-α-GalNAcase EngBF, SEQ ID NO:5; details: Core 1 substrate; data from Fujita et al. (2005); cited from earlier work
[3] = system: CC(=O)N[C@H]1[C@H](O[C@H]2[C@@H](O)[C@@H](CO)O[C@H](Oc3ccc([N+](=O)[O-])cc3)[C@@H]2NC(C)=O)O[C@H](CO)[C@@H](O)[C@@H]1O; test: purified protein, by the assay type; details: other: Core 3 substrate, 25° C., average of three measurements
[4] = system: CC(=O)N[C@H]1[C@@H](Oc2ccc([N+](=O)[O-])cc2)O[C@H](CO)[C@H](O)[C@@H]1O[C@@H]1O[C@H](CO)[C@H](O)[C@H](O)[C@H]1O; test: purified protein, by the assay type; details: 25.0 °C
[5] = Hydrolysis of pNP substrates, colorimetric assay (GalNAc); assay type: biochemical; details: GalNAcα1pNP, 25° C., 16 h, 405 nm
[6] = Hydrolysis of pNP substrates, colorimetric assay (Core 3); assay type: biochemical
[7] = Transglycosylation to 1-alkanols, Core 3 donor (TLC); assay type: biochemical; details: 0.8 mM GlcNAcβ1,3GalNAcα1ρNP donor, 1-alkanols as acceptors, room temperature, 16 h
Excerpt: The transglycosylation activity can be similarly determined for EngAA*.

[8] = Hydrolysis of pNP substrates, colorimetric assay (Core 2); assay type: biochemical; details: Galβ1,3(GlcNAcβ1,6)GalNAcα1pNP Core 2, 25° C., 16 h, 405 nm
[9] = Hydrolysis of pNP substrates, colorimetric assay (Galβ1,3GlcNAc); assay type: biochemical
[10] = Hydrolysis of pNP substrates, colorimetric assay (Core 1); assay type: biochemical; details: Galβ1,3GalNAcα1pNP Core 1, 0.25 mM substrate, 25° C., 16 h, 405 nm

Molecule | % product released [5] | % product released [6] | transglycosylation products [7] | % product released [8] | % product released [9] | % product released [10] | other results
CC(=O)N[C@H]1[C@@H](Oc2ccc([N+](=O)[O-])cc2)O[C@H](CO)[C@H](O)[C@@H]1O[C@@H]1O[C@H](CO)[C@H](O)[C@H](O)[C@H]1O [Galβ1,3GalNAcα1ρNP] |  |  |  |  |  |  | kcat, times lower than EngEF ([1]; Core 1 substrate): about 25 times; Km [2]: 21.8 µM; kcat [2]: 17.8 s⁻¹
Propionibacterium acnes endo-α-GalNAcase EngPA (YP_056270.1), SEQ ID NO:3 (Cutibacterium acnes subsp. acnes) |  |  |  |  |  |  | kcat [3]: 28.9 s⁻¹
Clostridium perfringens endo-α-GalNAcase EngCP (YP_695137.1), SEQ ID NO:6 (Clostridium perfringens ATCC 13124) |  |  |  |  |  |  | Km [4]: 70.93 µM; kcat [4]: 19.9 s⁻¹
Enterococcus faecalis endo-α-GalNAcase EngEF (NP_815498.1), SEQ ID NO:2 (Enterococcus faecalis V583) |  |  |  |  |  |  | kcat [3]: 9.43 s⁻¹
CC(=O)N[C@H]1[C@H](O[C@H]2[C@@H](O)[C@@H](CO)O[C@H](Oc3ccc([N+](=O)[O-])cc3)[C@@H]2NC(C)=O)O[C@H](CO)[C@@H](O)[C@@H]1O [GlcNAcβ1,3GalNAcα1ρNP] |  |  |  |  |  |  | kcat, times higher than EngEF ([1]; Core 3 substrate): 3 times
EngSP: endo-α-GalNAcase from Streptococcus pneumoniae, purchased from Roche [reference compound] | 1.2% | 3% | no significant difference | 0.6% | 0% | 100% | 
B1 | 1.8% | 100% | no significant difference | 0% | 0% | 100% | hydrolysis of the Core 3 disaccharide (in words) [6]: fully hydrolyzing
B2 | 2.2% | 100% | no significant difference | 2% | 0% | 100% | hydrolysis of the Core 3 disaccharide (in words) [6]: fully hydrolyzing
